The source of these data is patent US20200338210A1 (ARDEAGEN, published 2020).

Where only a bound is given, the exact number is not on record here.

Assay [1] deals with T1, human ROR1 on cell lines (human, UniProt Q01973 30-937).
T1 construct: Jeko-1 'bearing the ROR1 antigen'); also called Receptor tyrosine kinase-like orphan receptor 1
The assay can be described thus: quantitative flow cytometry on Daudi cells (cell only 328.77). For orientation: Flow cytometry measures light scatter and fluorescence of single cells or particles in a stream.

The target of assay [2] is T1, human ROR1 on cell lines. The assay can be described thus: quantitative flow cytometry on MDA-MD-231 cells (cell only 942.92).
Assay [3] concerns the target T1, human ROR1 on cell lines. The assay can be described thus: quantitative flow cytometry on Daudi cells (cell only 229).
The target in assay [4] is T1, human ROR1 on cell lines. The assay can be described thus: quantitative flow cytometry on Namalwa cells (cell only 222).
The target of assay [5] is T1, human ROR1 on cell lines. The assay can be described thus: quantitative flow cytometry on MKN-45 cells (cell only 641.4).
The target of assay [6] is T1, human ROR1 on cell lines. The assay can be described thus: quantitative flow cytometry on MDA-MD-231 cells (cell only 668).
The target in assay [7] is T1, human ROR1 on cell lines. The assay can be described thus: quantitative flow cytometry on Jeko-1 cells (cell only 237).
Assay [8] concerns the target T1, human ROR1 on cell lines. The assay can be described thus: quantitative flow cytometry on HCCLM3 cells (cell only 1014).
Assay [9] concerns the target T1, human ROR1 on cell lines. The assay can be described thus: quantitative flow cytometry on NCI-H2228 cells (cell only 894.37).
Assay [10] has as its target T1, human ROR1 on cell lines. The assay can be described thus: quantitative flow cytometry on Jeko-1 cells (cell only 340.33).
For assay [11], the target named is T1, human ROR1 on cell lines. The assay can be described thus: quantitative flow cytometry on NCI-H226 cells (cell only 1536.32).
In assay [12] the target is T1, human ROR1 on cell lines. The assay can be described thus: quantitative flow cytometry on MHCC97H cells (cell only 781).
Assay [13] deals with T1, human ROR1 on cell lines. The assay can be described thus: quantitative flow cytometry on MHCC97H cells (cell only 1099.77).
Assay [14] addresses T1, human ROR1 on cell lines. The assay can be described thus: quantitative flow cytometry on HCCLM3 cells (cell only 1420.81).
In assay [15] the target is T1, human ROR1 on cell lines. The assay can be described thus: quantitative flow cytometry on KATO-III cells (cell only 764).
Assay [16] addresses T1, human ROR1 on cell lines. The assay can be described thus: quantitative flow cytometry on KATO-III cells (cell only 1075.85).
Assay [17] concerns the target T1, human ROR1 on cell lines. The assay can be described thus: quantitative flow cytometry on NCI-H226 cells (cell only 1097).
The target in assay [18] is T1, human ROR1 on cell lines. The assay can be described thus: quantitative flow cytometry on Namalwa cells (cell only 319.84).
Assay [19] addresses T1, human ROR1 on cell lines. The assay can be described thus: quantitative flow cytometry on MKN-45 cells (cell only 451).
Assay [20] concerns the target T1, human ROR1 on cell lines. The assay can be described thus: quantitative flow cytometry on NCI-H2228 cells (cell only 633).
Assay [21] has as its target T1, human ROR1 on cell lines. The assay can be described thus: flow cytometry on Jeko-1 cells, FITC secondary, surface signal left after 37 C, 30 min T1 (secondary only 216). As for the experimental part:
(§1) The following JeKo-1 internalization assay was used. [0179] 1. Harvest Jeko-1 cells (suspension): count and spin down required cell number for experiment in 15 ml falcon tube. Re-suspended in PBS+3% FBS in bulk and aliquoted 100 μl (500,000 cells) per tube. [0180] 2. 2 μg each ADC per tube were added from bulk dilution, incubated 4° C. (on ice) for 1 hour. [0181] 3. 3×wash in 3 ml PBS+3% FBS. Centrifuge set to 1200 RPM for 3 min spin. Carefully decanted and discarded supernatant at each step. Pulse vortexed cell pellets. Left equal volumes in tubes after final wash. [0182] 4. Placed one set of tubes at 37° C. for each Ab tested, included secondary only control set for comparison. T₀=4° C., T₁=37° C. 30 min, T₁=37+ C., […] [0183] 5. After incubation times were complete, removed tubes from incubator and keep on ice until all samples were collected. [0184] 6. Added FITC labelled secondary, incubate on ice 45 min. [0185] 7. 3×wash in 3 ml PBS+3% FBS. Centrifuge set to 1500 RPM for 5 min spin. Carefully decanted and discarded supernatant at each step. Pulse vortexed cell pellets. Left equal volumes in tubes after final wash. [0186] 8. Collected data on instrument

Assay [22] concerns the target T1, human ROR1 on cell lines. The assay can be described thus: flow cytometry on Jeko-1 cells, FITC secondary, 4 C (on ice) T0 (secondary only 242). The method, then: as §1
For assay [23], the target named is T1, human ROR1 on cell lines. The assay can be described thus: flow cytometry on Jeko-1 cells, FITC secondary, surface signal left after 37 C, 2.5 hr T2 (secondary only 215). As for the experimental part:
as §1

Assay [24] has as its target T2, ROR1 (target of the KD values in Table 7) (Homo sapiens (Human), UniProt Q01973 30-403, limits assumed). The assay can be described thus: method not stated (Table 7); upper end of the printed range 100-400 pM.
Assay [25] addresses T2, ROR1 (target of the KD values in Table …). The assay can be described thus: method not stated (Table 7); lower end of the printed range 100-400 pM.

T1 sequence (Q01973 30-937 limits assumed): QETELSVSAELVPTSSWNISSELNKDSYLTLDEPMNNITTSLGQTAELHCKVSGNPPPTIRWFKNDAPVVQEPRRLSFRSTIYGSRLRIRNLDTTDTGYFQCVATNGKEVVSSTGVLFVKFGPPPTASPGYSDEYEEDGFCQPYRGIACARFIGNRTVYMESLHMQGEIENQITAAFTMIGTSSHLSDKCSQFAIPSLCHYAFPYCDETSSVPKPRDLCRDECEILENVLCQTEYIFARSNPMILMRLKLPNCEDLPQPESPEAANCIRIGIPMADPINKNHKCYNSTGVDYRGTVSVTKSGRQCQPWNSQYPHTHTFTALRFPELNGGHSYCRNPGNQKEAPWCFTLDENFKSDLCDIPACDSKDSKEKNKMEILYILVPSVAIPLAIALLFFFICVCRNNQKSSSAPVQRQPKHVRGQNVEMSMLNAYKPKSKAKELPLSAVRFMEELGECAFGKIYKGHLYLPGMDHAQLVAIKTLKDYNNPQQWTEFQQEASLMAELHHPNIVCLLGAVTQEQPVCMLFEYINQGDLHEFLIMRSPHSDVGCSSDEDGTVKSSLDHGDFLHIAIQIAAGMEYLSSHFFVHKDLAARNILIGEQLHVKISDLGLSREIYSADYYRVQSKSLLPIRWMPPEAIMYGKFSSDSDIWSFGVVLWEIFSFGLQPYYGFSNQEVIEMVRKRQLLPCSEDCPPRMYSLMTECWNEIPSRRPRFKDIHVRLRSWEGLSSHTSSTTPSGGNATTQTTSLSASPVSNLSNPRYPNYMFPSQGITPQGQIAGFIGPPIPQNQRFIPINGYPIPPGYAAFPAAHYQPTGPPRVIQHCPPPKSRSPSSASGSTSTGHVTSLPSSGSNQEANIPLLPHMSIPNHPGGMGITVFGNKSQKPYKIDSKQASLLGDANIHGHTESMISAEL
T2 sequence (Q01973 30-403 limits assumed): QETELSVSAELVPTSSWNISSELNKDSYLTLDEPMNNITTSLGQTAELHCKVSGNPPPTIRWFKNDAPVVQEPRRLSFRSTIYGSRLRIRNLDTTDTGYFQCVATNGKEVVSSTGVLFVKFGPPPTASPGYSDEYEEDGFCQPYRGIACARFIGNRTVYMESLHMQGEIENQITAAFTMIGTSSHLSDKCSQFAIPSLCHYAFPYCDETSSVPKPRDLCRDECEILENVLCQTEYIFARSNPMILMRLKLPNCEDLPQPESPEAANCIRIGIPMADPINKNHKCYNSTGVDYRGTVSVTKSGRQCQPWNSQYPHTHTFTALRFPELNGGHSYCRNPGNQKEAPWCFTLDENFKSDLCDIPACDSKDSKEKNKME

Take mIgG (antibody): the MFI (Geom. mean of FL2) in assay [1] stood at 327; in assay [2] it was 931; in assay [5], 659; in assay [9], 849; in assay [10], 338; in assay [11], 1400. Besides, the MFI (Geom. mean of FL2) in assay [13] turned out to be 1070; in assay [14], 1430; in assay [16] it was 1070; in assay [18], 294. Besides, the Ab binding capacity/cell is 227 per cell in [3]; 204 per cell in assay [4]; 660 per cell in assay [6]; 235 per cell in [7]; 1024 per cell in assay [8]; 757 per cell in [12]. For the same molecule, the Ab binding capacity/cell in assay [15] was 760 per cell; in assay [17] it was 996 per cell; in [19], 464 per cell; in [20], 600 per cell.

B1: 2A2-untagged (antibody, V domains shown)
VH: QVQLQQSGAELVRPGASVTLSCKASGYTFSDYEMHWVIQTPVHGLEWIGAIDPETGGTAYNQKFKGKAILTADKSSSTAYMELRSLTSEDSAVYYCTGYYDYDSFTYWGQGTLVTVSA
VL: DIVMTQSQKIMSTTVGDRVSITCKASQNVDAAVAWYQQKPGQSPKLLIYSASNRYTGVPDRFTGSGSGTDFTLTISNMQSEDLADYFCQQYDIYPYTFGGGTKLEIK
notes: also called untagged 2A2
For B1, the MFI in [21] was found to be 1070; in assay [22], 1070; in assay [23], 882.

B2: 2A2-C-Terminal tag (antibody, V domains shown)
VH: B1 VH
VL: B1 VL
modifications: C-terminal tag on the antibody (sequence not given)
notes: The protocol speaks of 'each ADC', so a payload may be attached; none is named; also called CT-tagged 2A2; C-terminal (CT)-tagged 2A2
For B2, the figures for the MFI in assay [21], in [22] and in assay [23] were 959, 990 and 750, respectively.

B3: Mouse 2A2 Antibody (antibody, mouse IgG1, kappa, V domains shown)
VH: B1 VH
VL: DIVMTQSQKIMSTTVGDRVSITCKASQNVDAAVAWYQQKPGQSPKLLIYSASNRYTGVPDRFTGSGSGTDFTLTISNMQSEDLADYFCQQYDIYPYTFGGGTKLEIKR
notes: also called m2A2; 2A2 anti-ROR1 antibodies
The term Kd denotes the concentration at which binding is half-saturated. Low values mean tighter binding, high ones weaker binding. As to B3, the Kd was not above 0.4 nM in assay [24] and not below 0.1 nM in assay [25].

B4: 2A2-CH1/C-Terminal double tag (antibody, V domains shown)
VH: B1 VH
VL: B1 VL
modifications: tags in CH1 and at the C-terminus (sequences and positions not given)
notes: The protocol speaks of 'each ADC', so a payload may be attached; none is named; also called CH1/CT double-tagged 2A2
B4: the MFI in assay [21] was 869; in [22], 1100; in [23] it was 658.

B5: 2A2-CH1 tag (antibody, V domains shown)
VH: B1 VH
VL: B1 VL
modifications: tag in CH1 (sequence and position not given)
notes: The protocol speaks of 'each ADC', so a payload may be attached; none is named; also called CH1-tagged 2A2
As to B5, the MFI turned out to be 1050 in assay [21], 1100 in [22] and 786 in [23].
